Substitutions are numbered along the chain they refer to.
Legend:
[1] = molecular target: T1, His-tagged permuted human TfR apical domain (TfR-AD) (human); experiment: size-exclusion chromatography of the mixed proteins
T1 construct: C-terminal His6; used for co-crystals (Expi293 or CHO); also called permuted TfR apical domain
T1 chain: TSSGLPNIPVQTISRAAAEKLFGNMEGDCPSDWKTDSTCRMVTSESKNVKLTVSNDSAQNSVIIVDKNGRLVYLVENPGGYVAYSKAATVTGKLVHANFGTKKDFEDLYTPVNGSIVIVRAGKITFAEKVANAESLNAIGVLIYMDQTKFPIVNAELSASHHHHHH

[2] = molecular target: T2, human transferrin receptor (TfR) ectodomain (ECD) (human, biotinylated where captured on streptavidin ; Biotinylated (NHS-biotin on amines, or BirA on the Avi-tag) where captured on streptavidin. It forms a homodimer, and the unique chain is given once.); experiment: ELISA, clone as Fc-Fab fusion, human TfR coated
T2 construct: made in HEK293; also called human TfR; huTfR; not shown: The C-terminal cleavable His- and Avi-tags

[3] = molecular target: T2, human transferrin receptor (TfR) …; experiment: phage ELISA, clone on phage, target coated on plate
Experimental: (§1) FIGS. 1A-1D show phage ELISA results for four CH2A2 clones.
(§2) ELISA plates were coated with target, typically at […] overnight, then blocked with 1% BSA before addition of phage or periplasmic extracts. […] The plates were washed again, and then developed with TMB reagent and quenched with 2N sulfuric acid. […] Absorbance signal for tested clones was compared to negative control (phage or paraplasmic extract lacking Fc).
Target sequence in this assay (chain, as listed by the source limits assumed, form in doubt): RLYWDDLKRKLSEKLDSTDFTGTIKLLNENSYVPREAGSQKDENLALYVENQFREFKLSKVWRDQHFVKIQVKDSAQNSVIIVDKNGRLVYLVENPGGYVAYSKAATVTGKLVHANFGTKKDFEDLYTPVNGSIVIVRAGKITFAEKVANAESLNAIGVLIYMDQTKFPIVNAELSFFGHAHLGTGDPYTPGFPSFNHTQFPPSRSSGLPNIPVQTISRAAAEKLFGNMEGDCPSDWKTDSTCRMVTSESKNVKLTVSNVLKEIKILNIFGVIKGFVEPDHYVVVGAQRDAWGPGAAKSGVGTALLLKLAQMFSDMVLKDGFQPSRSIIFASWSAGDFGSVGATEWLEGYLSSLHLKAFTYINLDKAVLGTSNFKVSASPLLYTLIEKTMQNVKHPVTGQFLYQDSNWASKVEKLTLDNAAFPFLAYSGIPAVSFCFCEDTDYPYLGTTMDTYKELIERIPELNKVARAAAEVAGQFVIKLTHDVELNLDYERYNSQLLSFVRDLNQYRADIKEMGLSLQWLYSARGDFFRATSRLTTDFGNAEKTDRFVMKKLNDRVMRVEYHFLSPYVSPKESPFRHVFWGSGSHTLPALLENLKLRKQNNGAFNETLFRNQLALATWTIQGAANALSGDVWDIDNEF

[4] = molecular target: T3, cynomolgus (cyno) transferrin receptor (TfR) ectodomain (ECD) (cynomolgus (cyno), biotinylated where captured on streptavidin ; biotinylated (sulfo-NHS-LC-biotin on amines or BirA on the Avi-tag) where captured on streptavidin); experiment: as above
T3 construct: made in HEK293; also called cyno TfR; cynoTfR; not shown: C-terminal cleavable His- and Avi-tags with their cleavage site
T3 chain: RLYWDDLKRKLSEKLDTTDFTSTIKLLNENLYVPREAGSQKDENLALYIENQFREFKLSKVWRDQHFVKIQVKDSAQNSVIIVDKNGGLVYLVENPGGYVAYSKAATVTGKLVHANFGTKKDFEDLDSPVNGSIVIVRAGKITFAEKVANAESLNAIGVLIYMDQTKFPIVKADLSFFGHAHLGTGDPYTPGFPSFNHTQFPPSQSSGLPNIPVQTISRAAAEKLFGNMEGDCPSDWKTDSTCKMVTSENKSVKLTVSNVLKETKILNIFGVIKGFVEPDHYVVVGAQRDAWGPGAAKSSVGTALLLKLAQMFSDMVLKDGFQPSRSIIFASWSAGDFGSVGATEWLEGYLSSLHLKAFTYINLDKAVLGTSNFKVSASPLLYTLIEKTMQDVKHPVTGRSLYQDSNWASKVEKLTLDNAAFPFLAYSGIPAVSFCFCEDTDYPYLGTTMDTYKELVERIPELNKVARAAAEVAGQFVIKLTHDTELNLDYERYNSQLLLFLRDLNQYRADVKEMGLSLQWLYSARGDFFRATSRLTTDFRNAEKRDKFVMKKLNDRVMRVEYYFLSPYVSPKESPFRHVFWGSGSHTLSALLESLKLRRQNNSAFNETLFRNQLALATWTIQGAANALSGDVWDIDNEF
Experimental: as §1, §2

B1: CH3C.18 Fc (expressed engineered human Fc) (designed binder)
chain: DKTHTCPPCPAPEAAGGPSVFLFPPKPKDTLYITREPEVTCVVVDVSHEDPEVKFNWYVDGVEVHNAKTKPREEQYNSTYRVVSVLTVLHQDWLNGKEYKCKVSNKALGAPIEKTISKAKGQPREPQVYTLPPSRDELTKNQVSLTCLVKGFYPSDIAVEWESLGHVWAVYKTTPPVLDSDGSFFLYSKLTVPKSTWQQGWVFSCSVMHEALHNHYTQKSLSLSPGK
notes: also called CH3C.18 Fc polypeptide
- binding result [1]: binds

B2: CH3C.35 Fc (expressed engineered human Fc) (designed binder)
chain: B1 chain with L164Y, H166T, V167E, A169S, V170S, P193T, T196E, W201F
- binding result [1]: binds

B3: Clone CH2C.6 (designed binder)
chain: PCPAPELLGGPSVFLFPPKPKDTLMISRTPEVTCVVVDPKMPPWEVKFNWYVDGVEVHNAKTKPREEEYYTYYRVVSVLTVLHQDWLNGKEYKCKVSNKALPAPIEKTISKAKGQPREPQVYTLPPSRDELTKNQVSLTCLVKGFYPSDIAVEWESNGQPENNYKTTPPVLDSDGSFFLYSKLTVDKSRWQQGNVFSCSVMHEALHNHYTQKSLSLSPGK
notes: modified human IgG1 Fc, phage display
- EC50 (read off the curve) [2]: ~2 nM

B4: Clone CH2A2.4 (designed binder)
chain: PCPAPELLGGPSVFLFPPKPKDTLMISRTPEVTCVVVDVSHEDPEVSFEWYVDGVPVRWEWQWPREEQYNSTYRVVSVLTVLHQDWLNGKEYKCKVSNKALPAPIEKTISKAKGQPREPQVYTLPPSRDELTKNQVSLTCLVKGFYPSDIAVEWESNGQPENNYKTTPPVLDSDGSFFLYSKLTVDKSRWQQGNVFSCSVMHEALHNHYTQKSLSLSPGK
notes: as for B3
- EC50 (read off the curve) [3]: ~0.02 OD268 (phage solution)
- EC50 (read off the curve) [4]: ~0.02 OD268 (phage solution)

B5: Clone CH2A2.1 (designed binder)
chain: B4 chain with S47E, E49I, P56D, W59Y, W63L
notes: as for B3
- EC50 (read off the curve) [3]: ~0.03 OD268 (phage solution)
- EC50 (read off the curve) [4]: ~0.04 OD268 (phage solution)

B6: Clone CH2A2.16 (designed binder)
chain: B4 chain with S47W, P56F, R58G, W59V, E60A, W61Y, Q62D, W63V
notes: as for B3
- EC50 (read off the curve) [3]: ~0.04 OD268 (phage solution)

B7: Clone CH2A2.5 (designed binder)
chain: B4 chain with S47A, E49T, W63N
notes: as for B3
- EC50 (read off the curve) [3]: ~0.008 OD268 (phage solution)
- EC50 (read off the curve) [4]: ~0.01 OD268 (phage solution)
